Consider one variant from FireProtDB (doi:10.1073/pnas.0908565107).

The labels stand for the following.
B1: Alanine--glyoxylate aminotransferase, P21549 (parent)
chain: MASHKLLVTPPKALLKPLSIPNQLLLGPGPSNLPPRIMAAGGLQMIGSMSKDMYQIMDEIKEGIQYVFQTRNPLTLVISGSGHCALEAALVNVLEPGDSFLVGANGIWGQRAVDIGERIGARVHPMTKDPGGHYTLQEVEEGLAQHKPVLLFLTHGESSTGVLQPLDGFGELCHRYKCLLLVDSVASLGGTPLYMDRQGIDILYSGSQKALNAPPGTSLISFSDKAKKKMYSRKTKPFSFYLDIKWLANFWGCDDQPRMYHHTIPVISLYSLRESLALIAEQGLENSWRQHREAAAYLHGRLQALGLQLFVKDPALRLPTVTTVAVPAGYDWRDIVSYVIDHFDIEIMGGLGPSTGKVLRIGLLGCNATRENVDRVTEALRAALQHCPKKKL

The variants in the data set derive from B1. As to conditions: Homo sapiens; pH 7.4; Thermal; DSC; Potassium phosphate 100 mM; structure 1H0C; whole UniProt chain shown.
The term Tm denotes the temperature at the midpoint of the melting transition. As to G41V, the Tm came out at 58.3 °C and the “change of melting temperature, mutant - wild type (higher = more stable)” value is -4.1 °C.
